Assays:
[1] = biological target: Trypanosoma cruzi phosphofructokinase (T. cruzi (strain CL Brener)); assay: SEC; preparative gel filtration of IMAC eluate on HiPrep Sephacryl S-200 16/60; 20 mM TEA, 5 mM MgCl2, 50 mM KCl, 10% glycerol, pH 7.4; tetrameric fractions collected
[2] = biological target: the molecule itself; assay: SEC; preparative size exclusion of IMAC eluate on Superose 6 10/300; 50 mM TEA, 500 mM KCl, 5 mM MgCl2, 1 mM TCEP, 1 mM ATP/F6P, 10% glycerol, pH 8; fractions corresponding to the tetramer (340 kDa) pooled
[3] = biological target: the molecule itself; assay: SEC; preparative size exclusion of IMAC eluate on HiPrep Sephacryl S300 16/600; 50 mM TEA, 500 mM KCl, 5 mM MgCl2, 1 mM TCEP, 1 mM ATP/F6P, 10% glycerol, pH 7.4; fractions corresponding to the tetramer (340 kDa) pooled
[4] = biological target: the molecule itself; assay: SEC; preparative gel filtration of IMAC eluate on HiPrep Sephacryl S-200 16/60; 20 mM TEA, 5 mM MgCl2, 50 mM KCl, 10% glycerol, pH 7.4; tetrameric fractions collected

## Trypanosoma cruzi phosphofructokinase (enzyme)
[1]
  stoichiometry N: 4

B1: human phosphofructokinase isoform PFK-L (enzyme, UniProt P17858 1-780, looked up)
chain: MAAVDLEKLRASGAGKAIGVLTSGGDAQGMNAAVRAVTRMGIYVGAKVFLIYEGYEGLVEGGENIKQANWLSVSNIIQLGGTIIGSARCKAFTTREGRRAAAYNLVQHGITNLCVIGGDGSLTGANIFRSEWGSLLEELVAEGKISETTARTYSHLNIAGLVGSIDNDFCGTDMTIGTDSALHRIMEVIDAITTTAQSHQRTFVLEVMGRHCGYLALVSALASGADWLFIPEAPPEDGWENFMCERLGETRSRGSRLNIIIIAEGAIDRNGKPISSSYVKDLVVQRLGFDTRVTVLGHVQRGGTPSAFDRILSSKMGMEAVMALLEATPDTPACVVTLSGNQSVRLPLMECVQMTKEVQKAMDDKRFDEATQLRGGSFENNWNIYKLLAHQKPPKEKSNFSLAILNVGAPAAGMNAAVRSAVRTGISHGHTVYVVHDGFEGLAKGQVQEVGWHDVAGWLGRGGSMLGTKRTLPKGQLESIVENIRIYGIHALLVVGGFEAYEGVLQLVEARGRYEELCIVMCVIPATISNNVPGTDFSLGSDTAVNAAMESCDRIKQSASGTKRRVFIVETMGGYCGYLATVTGIAVGADAAYVFEDPFNIHDLKVNVEHMTEKMKTDIQRGLVLRNEKCHDYYTTEFLYNLYSSEGKGVFDCRTNVLGHLQQGGAPTPFDRNYGTKLGVKAMLWLSEKLREVYRKGRVFANAPDSACVIGLKKKAVAFSPVTELKKDTDFEHRMPREQWWLSLRLMLKMLAQYRISMAAYVSGELEHVTRRTLSMDKGF
notes: human ATP-dependent phosphofructokinase, liver type (PFK-L1), yeast codon optimised cDNA; also called PFK-L1; source: PFK-deficient Saccharomyces cerevisiae, plasmid pJJH71, purified (nickel IMAC, Superose 6 size exclusion)
[2]
  stoichiometry N: 4

B2: human phosphofructokinase isoform PFK-M (enzyme, UniProt P08237 1-780, looked up)
chain: MTHEEHHAAKTLGIGKAIAVLTSGGDAQGMNAAVRAVVRVGIFTGARVFFVHEGYQGLVDGGDHIKEATWESVSMMLQLGGTVIGSARCKDFREREGRLRAAYNLVKRGITNLCVIGGDGSLTGADTFRSEWSDLLSDLQKAGKITDEEATKSSYLNIVGLVGSIDNDFCGTDMTIGTDSALHRIMEIVDAITTTAQSHQRTFVLEVMGRHCGYLALVTSLSCGADWVFIPECPPDDDWEEHLCRRLSETRTRGSRLNIIIVAEGAIDKNGKPITSEDIKNLVVKRLGYDTRVTVLGHVQRGGTPSAFDRILGSRMGVEAVMALLEGTPDTPACVVSLSGNQAVRLPLMECVQVTKDVTKAMDEKKFDEALKLRGRSFMNNWEVYKLLAHVRPPVSKSGSHTVAVMNVGAPAAGMNAAVRSTVRIGLIQGNRVLVVHDGFEGLAKGQIEEAGWSYVGGWTGQGGSKLGTKRTLPKKSFEQISANITKFNIQGLVIIGGFEAYTGGLELMEGRKQFDELCIPFVVIPATVSNNVPGSDFSVGADTALNTICTTCDRIKQSAAGTKRRVFIIETMGGYCGYLATMAGLAAGADAAYIFEEPFTIRDLQANVEHLVQKMKTTVKRGLVLRNEKCNENYTTDFIFNLYSEEGKGIFDSRKNVLGHMQQGGSPTPFDRNFATKMGAKAMNWMSGKIKESYRNGRIFANTPDSGCVLGMRKRALVFQPVAELKDQTDFEHRIPKEQWWLKLRPILKILAKYEIDLDTSDHAHLEHITRKRSGEAAV
notes: human ATP-dependent phosphofructokinase, muscle type (PFK-M1), yeast codon optimised cDNA; also called PFK-M1; source: PFK-deficient Saccharomyces cerevisiae, plasmid pJJH71, purified (nickel IMAC, Sephacryl S300 size exclusion)
[3]
  stoichiometry N: 4

B3: Trypanosoma brucei phosphofructokinase (enzyme, T. b. brucei (strain Lister 427), UniProt O15648 1-487, looked up)
chain: MAVESRSRVTSKLVKAHRAMLNSVTQEDLKVDRLPGADYPNPSKKYSSRTEFRDKTDYIMYNPRPRDEPSSENPVSVSPLLCELAAARSRIHFNPTETTIGIVTCGGICPGLNDVIRSITLTGINVYNVKRVIGFRFGYWGLSKKGSQTAIELHRGRVTNIHHYGGTILGSSRGPQDPKEMVDTLERLGVNILFTVGGDGTQRGALVISQEAKRRGVDISVFGVPKTIDNDLSFSHRTFGFQTAVEKAVQAIRAAYAEAVSANYGVGVVKLMGRDSGFIAAQAAVASAQANICLVPENPISEQEVMSLLERRFCHSRSCVIIVAEGFGQDWGRGSGGYDASGNKKLIDIGVILTEKVKAFLKANKSRYPDSTVKYIDPSYMIRACPPSANDALFCATLATLAVHEAMAGATGCIIAMRHNNYILVPIKVATSVRRVLDLRGQLWRQVREITVDLGSDVRLARKLEIRRELEAINRNRDRLHEELAKL
notes: ATP-dependent phosphofructokinase of Trypanosoma brucei brucei, DNA source strain Lister 427, codon optimised for E. coli; Tag removal was only partially successful; the tagged protein was used for all experiments; also called TbPFK; T. brucei PFK; source: E. coli C41 (DE3), pET28a, purified (cobalt IMAC, Sephacryl S-200 gel filtration); not shown: His6, N-terminal, kept
[4]
  stoichiometry N: 4

B4: human phosphofructokinase isoform PFK-P (enzyme, UniProt Q01813 1-784, looked up)
chain: MDADDSRAPKGSLRKFLEHLSGAGKAIGVLTSGGDAQGMNAAVRAVVRMGIYVGAKVYFIYEGYQGMVDGGSNIAEADWESVSSILQVGGTIIGSARCQAFRTREGRLKAACNLLQRGITNLCVIGGDGSLTGANLFRKEWSGLLEELARNGQIDKEAVQKYAYLNVVGMVGSIDNDFCGTDMTIGTDSALHRIIEVVDAIMTTAQSHQRTFVLEVMGRHCGYLALVSALACGADWVFLPESPPEEGWEEQMCVKLSENRARKKRLNIIIVAEGAIDTQNKPITSEKIKELVVTQLGYDTRVTILGHVQRGGTPSAFDRILASRMGVEAVIALLEATPDTPACVVSLNGNHAVRLPLMECVQMTQDVQKAMDERRFQDAVRLRGRSFAGNLNTYKRLAIKLPDDQIPKTNCNVAVINVGAPAAGMNAAVRSAVRVGIADGHRMLAIYDGFDGFAKGQIKEIGWTDVGGWTGQGGSILGTKRVLPGKYLEEIATQMRTHSINALLIIGGFEAYLGLLELSAAREKHEEFCVPMVMVPATVSNNVPGSDFSIGADTALNTITDTCDRIKQSASGTKRRVFIIETMGGYCGYLANMGGLAAGADAAYIFEEPFDIRDLQSNVEHLTEKMKTTIQRGLVLRNESCSENYTTDFIYQLYSEEGKGVFDCRKNVLGHMQQGGAPSPFDRNFGTKISARAMEWITAKLKEARGRGKKFTTDDSICVLGISKRNVIFQPVAELKKQTDFEHRIPKEQWWLKLRPLMKILAKYKASYDVSDSGQLEHVQPWSV
notes: human ATP-dependent phosphofructokinase, platelet type (PFK-P1), yeast codon optimised cDNA; also called PFK-P1; source: PFK-deficient Saccharomyces cerevisiae, plasmid pJJH71, purified (nickel IMAC, Superose 6 size exclusion)
[2]
  stoichiometry N: 4
